Test results reported in the supplement of paper PMC10567573.

B1: PTPRD (parent)
chain: MVHVARLLLLLLTFFLRTDAETPP
B2: CDC25A (parent)
chain: KPIVPTDGKRVIVVFHCEFSSERG

Variants of: B1
Assay: protein stability index of a GFP-peptide fusion (GPS, HEK-293T) (PSI 1-6); higher = more stable
Details: c terminus: a fixed tail appended
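Note: lentivirally expressed fusions sorted by FACS into six bins by GFP to DsRed ratio, PSI derived from sequencing read proportions per bin multiplied by bin number.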

Variant	protein stability index
L9Q	1.8
L9A	2.04
L9T	3.23
L9W	2.29
L9S	2.29
L9M	1.87
T18Y	2.88
T18V	2.63
T18N	2.38
T18F	3.28
T18E	2.04
T18S	2.48
T18R	3.3
T18C	1.86
T18K	3.74
T18M	2.62
T13W	3.29
T13I	4.2
T13R	2.04
T13N	2.05
T13M	3.59
T13S	2.31
T13H	1.77
T13P	2.14

Variant	protein stability index
R6D	3.08
R6E	3.41
R6V	2.29
R6T	2.3
R6K	1.67
R6Q	3.99
R6M	1.76
R6H	3.34
R6L	1.9
R6S	1.88
A20L	2.99
A20H	3.11
A20E	2.48
A20D	1.29
A20F	1.84
A20G	1.84
A20I	1.81
E21M	3.64
E21F	3.22
E21Y	2.55
E21A	3.13
E21L	2.79
E21V	2.83
E21K	2.66

Variant	protein stability index
E21C	2.82
L12F	3
L12E	2.51
L12H	1.58
L12P	2.19
L12K	2.63
L12W	2.53
L12Y	3.69
L12D	1.57
L12N	2.12
L12Q	2.2
L8Y	3.46
L8K	1.98
L8C	1.89
L8R	2.45
D19Q	2.75
D19C	4.03
D19I	2.41
D19L	2.71
L16M	4.18
L16G	2.65
L16W	1.81
L16T	2.68
L16Q	1.74

Variant	protein stability index
L16E	3.34
L16P	2.65
L16D	3.53
L16H	2.35
F14Q	2.15
F14K	1.61
F14A	1.93
F14E	1.57
F14P	2.45
F14R	1.98
F14M	3.79
F14N	2.07
F14D	1.79
L7E	1.36
L7R	2.75
L7P	1.74
L7I	3.46
L7Y	2.55
L7G	4.57
L7H	2.1
L7N	3.02
L7C	2.95
L7K	3.28
L7S	2.15

Variant	protein stability index
V2N	1.79
V2P	1.93
V2A	2.85
V2C	2.73
V2M	2.69
V2S	2.4
V2F	4.14
V2D	2.92
V2T	2.06
V2Q	1.88
V2W	2.96
V2R	2.51
P23Y	3.76
P23M	2.86
P23R	3.55
P23A	2.42
P23N	2.49
P23S	2.84
P23V	2.46
P23T	1.86
T22N	2.05
T22R	3.51
T22F	1.95
T22V	3.03

Variant	protein stability index
T22S	4.07
T22W	5.11
H3S	4.08
H3P	1.49
H3T	3.21
A5I	1.95
A5Q	2.34
A5T	2.7
A5W	2.51
A5L	3.83
L11H	1.97
L11W	3.02
L11K	1.69
L11I	2.14
L11N	3.99
L11S	3.85
L11P	3.92
P24T	3.52
P24N	1.73
P24A	3.4
P24Y	2.67
P24C	4.5
P24V	2.77
P24I	2.26

Variant	protein stability index
R17D	2.22
R17Y	2.3
R17Q	1.92
R17P	1.87
R17L	2.77
R17T	2.79
R17I	2.17
R17F	2.87
R17N	3.08
L10W	1.93
L10N	2.71
L10K	2.83
L10A	2.23
L10P	3.02
L10D	1.67
L10I	4.4
L10Y	1.66
L10F	2.43
F15D	2.02
F15L	2.13
F15E	2.21
F15P	2.01
F15Y	3
F15H	4.29

Variant	protein stability index
F15M	2.34
V4L	3.81
V4S	2.46
V4Y	1.52
V4R	2.34
V4C	3.07
V4I	1.41
V4N	2.68
M1K	2.28
M1E	2.33
M1F	1.96
M1Y	3.9
M1Q	2.33
M1T	2.87
M1I	3.05
M1H	1.82
M1L	1.52

Variants of: B2
Assay: as above
Details: c terminus: a fixed tail appended

Variant	protein stability index
F15K	3.79
F15T	2.92
F15W	1.55
F15D	4.34
F15G	2.98
F15A	2.47
F15E	4.32
F15Y	1.72
V14R	2.09
V14Q	2.24
V14L	2.17
V14F	1.83
V14Y	2.6
V14K	2.43
V14T	1.72
V14H	2.54
V14N	2.35
S20D	1.68
S20G	2.51
S20N	1.95
S20M	2.43
S20Q	1.71
S20K	2.76
S20I	3.13
S20H	2.8

Variant	protein stability index
S20T	2.79
S21V	2.61
S21C	3.38
S21H	2.27
S21L	3.4
S21E	1.56
C17I	2.68
C17H	1.38
C17F	1.93
C17Q	2.32
C17L	2.12
C17A	2.24
V13C	1.79
V13N	3.57
V13F	2.33
V13I	3.19
E22G	1.99
E22T	2.75
E22F	3.5
E22L	3.4
E22I	2.65
E22A	2.39
I3M	2.32
I3F	2.09
I3N	2.48

Variant	protein stability index
I3R	2.56
I3G	1.7
I3S	1.1
P2S	1.31
P2V	1.82
P2F	2.37
P2R	1.99
V11S	2.35
V11W	3.24
V11G	2.21
V11N	2.14
V4G	2.33
V4N	3.39
V4I	2.57
V4R	3.53
V4Q	2.44
V4S	2.49
R10M	2.6
R10T	2.54
R10N	2.39
R10D	1.77
R10C	3.54
R10I	1.45
K1R	2.65
K1N	1.62

Variant	protein stability index
K1I	2.57
K1Q	2.15
K1C	3.33
K1T	1.98
G8P	1.52
G8H	3.19
G8T	2.3
G8D	1.33
G8Y	2.16
G8N	1.95
G8C	1.88
G8A	2.26
G8W	2.51
G8I	2.89
D7Q	2.76
D7W	4.57
D7N	2.48
D7M	2.53
D7K	1.8
E18C	2.17
E18V	3.1
E18K	4
E18G	2.55
E18N	2.34
E18M	2.38

Variant	protein stability index
E18R	2.48
E18W	2.46
P5D	1.33
P5V	2.29
P5T	1.55
P5Q	2.27
K9R	2.92
K9L	2.69
K9Q	3.32
K9H	2.19
K9F	2.2
F19P	1.8
F19Y	1.89
F19L	2.32
F19G	2.15
F19H	1.86
I12V	1.63
I12A	2.11
I12H	1.83
I12L	3.39
R23I	3.36
R23T	3.36
R23H	1.84
R23D	2.52
R23C	2.82

Variant	protein stability index
R23N	3.72
R23L	2.44
R23K	2.67
R23S	2.19
T6L	1.92
T6M	2.11
T6E	1.82
T6V	1.61
T6N	2.28
T6F	2.46
G24K	1.44
G24E	1.93
G24M	3.17
G24T	3.03
G24A	1.29
G24P	2.66
G24I	4.86
G24V	2.56
G24C	2.7
H16S	3.2
H16I	2.85
H16A	1.79
H16L	3.13
H16N	1.87
